Data taken from the supplement of paper PMC10126150.
± gives the standard deviation of the averaged measurements.

Test system: ATP
Assay: switch fluorescence ratio, 500 uM ATP over buffer (Cy3 cluster intensity, sum of 5 cycles each) (fold (ratio)); higher = stronger signal-on switching upon ATP binding; sequences stand for … in TCGTCGGCAGCGTCAGATGTGTATAAGAGACAGTTTTTTTTTTTTTTTTTTTTTTTTT…TC
Settings: aptamer strand: ATP DNA aptamer (quencher-CACCTGGGGGAGTATTGCGGAGGAAGG + anchor), 100 nM annealed; ATP concentration: 500 uM
Summary of the method: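 Clusters with intensities outside 100-1000 RFU were excluded. The remaining Cy3-labelled switching-strand clusters on a modified Illumina MiSeq flow-cell had been annealed to 100 nM quencher-labelled ATP aptamer and imaged in selection buffer, then after 15 min with 500 uM ATP at 22 °C, for five cycles separated by NaOH stripping and re-annealing. The fluorescence ratio, averaged per switch-domain sequence, is each cluster's summed target-cycle Cy3 intensity over its summed buffer-cycle Cy3 intensity.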
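Note: ATP exposure 15 min at 22 °C before imaging.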

Row | Sequence | switch fluorescence ratio
1 | TTAAGTTCGG | 1.02 ± 0.013
2 | GGGGTGGGGT | 1 ± 0.052
3 | GCGGCGGATC | 0.987 ± 0.038
4 | GTCGTCCTGT | 0.9884 ± 0.0083
5 | TTGGGTAGAT | 0.988 ± 0.025
6 | GGGTGCGCGA | 1.04 ± 0.041
7 | TTATTGGTGG | 0.966 ± 0.04
8 | CGTAATGCTT | 1.17 ± 0.032
9 | GGGGGGGGAT | 1.01 ± 0.029
10 | TACGGTCGCG | 0.9949 ± 0.0036
11 | CTGTAATCGT | 0.9595 ± 0.0086
12 | GGGTATTACG | 0.975 ± 0.023
13 | CGAGTTGGAC | 1.0038 ± 0.00091
14 | TGTTTGACGT | 1.03 ± 0.014
15 | ACCGATTTTG | 0.994 ± 0.022
16 | TTTTTGTCCC | 1.04 ± 0.054
17 | TTTGTAAGGG | 0.986 ± 0.021
18 | GTTTGCGTAT | 1.02 ± 0.048
19 | CAGTGCGGAG | 0.999 ± 0.016
20 | TTGAACTACT | 1.03 ± 0.016
21 | GGTTTGGCGA | 0.988 ± 0.044
22 | GTCTGATTTA | 1.01 ± 0.011
23 | CTCAGGGTTT | 1.04 ± 0.023

Row | Sequence | switch fluorescence ratio
24 | TATACGACTT | 1.03 ± 0.029
25 | TTTGGATAAA | 1.04 ± 0.049
26 | AAAAAACGGT | 1.02 ± 0.025
27 | AGGGGGGCCC | 1 ± 0.037
28 | GCGAGTCTCG | 1.03 ± 0.044
29 | TTTTAGACAA | 1.18 ± 0.17
30 | ATAAGTTCTT | 0.995 ± 0.033
31 | ATTCCGGGCT | 1.05 ± 0.031
32 | ACGGGGTGCG | 0.986 ± 0.032
33 | GGGTTTATGT | 0.984 ± 0.029
34 | AGGGTAACTT | 1.01 ± 0.023
35 | ATCGGCACAT | 1.1 ± 0.012
36 | AAATTAAATT | 0.996 ± 0.039
37 | AAGTTCATAT | 0.965 ± 0.015
38 | CAGGGAGAAT | 1.01 ± 0.019
39 | ACGAGGTTAA | 1.01 ± 0.018
40 | GACGCTAAAG | 1.08 ± 0.029
41 | TCGTGGGGAT | 1 ± 0.021
42 | GGATATAAGT | 1.01 ± 0.035
43 | TTAGCTTTGA | 0.992 ± 0.022
44 | GGGGCTTAGC | 1.02 ± 0.046
45 | TTTGGGGGGC | 1.05 ± 0.12
46 | TTTGTCTGTT | 1.03 ± 0.038

Row | Sequence | switch fluorescence ratio
47 | TTGTCCCGTG | 1.01 ± 0.026
48 | CACGTTAGTT | 1.06 ± 0.06
49 | CCCGGGGGGA | 1.55 ± 0.7
50 | AGTACGATAT | 1.14 ± 0.025
51 | AAAAATCCTG | 0.98 ± 0.021
52 | TACTATGATT | 1.04 ± 0.018
53 | AGACCGTTCG | 1.02 ± 0.0066
54 | CCAGGGGTTT | 2.66 ± 2.4
55 | ATAGGTTAGA | 1.06 ± 0.14
56 | AAGGAAATGT | 1 ± 0.014
57 | TTTTAATTAA | 1.01 ± 0.044
58 | GGTTCTCTAG | 0.976 ± 0.01
59 | TTTGGTTCGA | 0.977 ± 0.012
60 | GGGTTATAGT | 1.01 ± 0.017
61 | CTCTAGGGGG | 1.05 ± 0.028
62 | TAAAACTTAC | 1.45 ± 0.1
63 | CCCATGCCCG | 1.04 ± 0.021
64 | AAGTTATGGG | 1 ± 0.023
65 | GGGGATGGGG | 1.02 ± 0.044
66 | TCAAATGAAT | 0.994 ± 0.05
67 | GGGGCGTTTG | 0.961 ± 0.057
68 | TATAGGTCGG | 0.9695 ± 0.0057
69 | GGGTTTACGG | 1.02 ± 0.017

Row | Sequence | switch fluorescence ratio
70 | GCTGTAGGAG | 0.9843 ± 0.0072
71 | TGGGATGCGT | 0.988 ± 0.015
72 | TAGGGAAAGT | 0.9607 ± 0.0022
73 | ACTAATACGA | 2.41 ± 1.8
74 | ATGTGGTGTC | 1.02 ± 0.015
75 | GATTTGGATT | 0.993 ± 0.012
76 | ACGCTCAGGT | 1.29 ± 0.041
77 | AAGTTTAAAT | 0.999 ± 0.02
78 | GGGGATTTGC | 0.969 ± 0.023
79 | GAGGCAGGGA | 1.19 ± 0.16
80 | GAAAGGTCTA | 0.987 ± 0.057
81 | GAGGAGGGTT | 0.992 ± 0.051
82 | AGTATATAC | 1.02 ± 0.029
83 | GAACTAGGGG | 1.05 ± 0.088
84 | TTTGTGGTTA | 1.04 ± 0.056
85 | GATGTTAGGG | 0.983 ± 0.026
86 | AGGTTGTTAT | 0.969 ± 0.013
87 | GGGCTTTAAA | 1.01 ± 0.012
88 | TATGAGTGAC | 1.02 ± 0.016
89 | TATTGGGTTT | 0.996 ± 0.022
90 | CTTGATTATA | 1.007 ± 0.0061
91 | GCAATCTGGG | 1.38 ± 0.079
92 | GGTAGGGGGA | 1.02 ± 0.046

Row | Sequence | switch fluorescence ratio
93 | GGCGCTTTTC | 1 ± 0.058
94 | TTGCAACTTT | 1.12 ± 0.17
95 | GTCGAAGGGT | 1 ± 0.048
96 | ATCGATGGGA | 0.987 ± 0.07
97 | GGAGAACGAT | 1.03 ± 0.027
98 | TAGGAGAGTT | 0.994 ± 0.036
99 | TGGAGAAATT | 0.952 ± 0.13
100 | GTTGGACTGG | 1.01 ± 0.037
101 | TATATTTTTA | 0.9819 ± 0.0079
102 | TGAATGAGGG | 0.993 ± 0.029
103 | ATTGGAGTCG | 0.9477 ± 0.0084
104 | TAGAGAATAT | 0.992 ± 0.026
105 | CGATATAGGC | 0.959 ± 0.018
106 | TTCGTCTGCT | 1.02 ± 0.024
107 | TTTATCAACG | 1.046 ± 0.0027
108 | CGTAAACGCT | 1.04 ± 0.024
109 | ATCGTTAATT | 0.981 ± 0.041
110 | AGTGTGTGGA | 1.04 ± 0.021
111 | TAGCCGGTCG | 0.9846 ± 0.0023
112 | GCGGAGGCGT | 0.984 ± 0.01
113 | TGGGGGATTG | 0.987 ± 0.031
114 | TTATCGGCCA | 1 ± 0.067
115 | CGGGGACGGA | 1.02 ± 0.029

Row | Sequence | switch fluorescence ratio
116 | CTTTTGGGGT | 0.991 ± 0.01
117 | TATAGGCTTC | 1 ± 0.023
118 | TTTGGTGTAG | 1.02 ± 0.015
119 | GCGATAGTTG | 1.02 ± 0.053
120 | ACAACAGGGG | 2.91 ± 0.65
121 | AATTTCACCA | 0.999 ± 0.013
122 | GGATTGAGGG | 0.968 ± 0.021
123 | ACAAGTTTTG | 1.04 ± 0.0022
124 | TCTTGTATGG | 0.9906 ± 0.006
125 | CGGGGAGGCA | 0.997 ± 0.031
126 | TTATTATAAT | 0.982 ± 0.021
127 | TTAACTATGG | 1.016 ± 0.0066
128 | AGATTTTTTA | 0.954 ± 0.016
129 | ACCAATATCT | 1.01 ± 0.068
130 | GATGAGGATT | 1.01 ± 0.011
131 | GCTTTGTATA | 1 ± 0.021
132 | TAGAACTTCG | 1.014 ± 0.0077
133 | TTGGCAAGCT | 1.06 ± 0.072
134 | TGTGTGATTC | 1.3 ± 0.49
135 | AGAATCCAGC | 0.982 ± 0.021
136 | TTTATCTTTG | 1 ± 0.027
137 | CAAGTAAGCG | 1.003 ± 0.0011
138 | TAGTAGCTTT | 1.2 ± 0.31

Row | Sequence | switch fluorescence ratio
139 | TTTAGGTACG | 1 ± 0.018
140 | GGGTTAAAGT | 0.994 ± 0.022
141 | ACGTAATAGC | 2.07 ± 0.13
142 | AGAAGCCCCC | 1.02 ± 0.048
143 | TTGTAATTAC | 1.3 ± 0.44
144 | CAGAAGACAG | 0.995 ± 0.071
145 | AGGCGTGGGG | 1.03 ± 0.017
146 | TGCAGTGCGT | 1.0018 ± 9.8e-05
147 | TAAAAATAAA | 0.995 ± 0.0065
148 | GAGGTGAACA | 1.04 ± 0.067
149 | TGTCGGATTA | 0.979 ± 0.011
150 | AGCAGAGAAA | 0.982 ± 0.046
151 | AGTGTCTGGG | 0.992 ± 0.022
152 | TGAGTATTTG | 0.98 ± 0.025
153 | CTGATATTGG | 0.994 ± 0.015
154 | CATTAGCGAT | 1.5 ± 0.091
155 | GTTCAAACGG | 0.967 ± 0.018
156 | GAAGCGAGTG | 0.9785 ± 0.0056
157 | GCTGTTGGCA | 1.01 ± 0.025
